The Immune Epitope Database (IEDB)
Each block holds one sequence with its values, some of them ahead of it.

Tests used:
HLA-A*24:02 = assay: IEDB peptide-MHC binding, cellular MHC/competitive/fluorescence; ≥ and ≤ were set here for values at or beyond the usual limits of such assays; conditions: source organism: Human herpesvirus 5 strain AD169
HLA-C*04:01 = assay: IEDB peptide-MHC binding, purified MHC/competitive/fluorescence; filed as Kd, often an IC50 or EC50 that approximates it; ≥ and ≤ were set here for values at or beyond the usual limits of such assays; conditions: source organism: Burkholderia pseudomallei S13
HLA-B*15:42 = assay: as above; conditions: source organism: Burkholderia pseudomallei S13
HLA-B*83:01 = assay: as above; conditions: source organism: Burkholderia pseudomallei S13
HLA-A*23:01 = assay: as above; conditions: source organism: Burkholderia pseudomallei S13
HLA-B*45:06 = assay: as above; conditions: source organism: Burkholderia pseudomallei S13
HLA-A*02:19 = assay: IEDB peptide-MHC binding, purified MHC/direct/fluorescence; filed as Kd, often an IC50 or EC50 that approximates it; ≥ and ≤ were set here for values at or beyond the usual limits of such assays
HLA-B*39:01 = assay: as above
HLA-A*02:16 = assay: as above
HLA-B*18:01 [1] = assay: as above
HLA-A*26:01 = assay: as above
HLA-B*57:01 [2] = assay: as above
HLA-B*51:01 = assay: as above
HLA-A*02:11 = assay: as above
HLA-A*02:01 = assay: as above
HLA-B*46:01 = assay: as above
HLA-B*27:03 = assay: as above
HLA-A*02:12 = assay: as above
HLA-A*03:01 = assay: as above
HLA-B*73:01 [3] = assay: IEDB peptide-MHC binding, purified MHC/competitive/fluorescence; filed as Kd, often an IC50 or EC50 that approximates it; ≥ and ≤ were set here for values at or beyond the usual limits of such assays; conditions: source organism: Escherichia coli O157:H7 str. Sakai
HLA-A*24:03 = assay: IEDB peptide-MHC binding, purified MHC/direct/fluorescence; filed as Kd, often an IC50 or EC50 that approximates it; ≥ and ≤ were set here for values at or beyond the usual limits of such assays; conditions: source organism: Burkholderia mallei ATCC 23344
HLA-B*15:01 [4] = assay: as above
HLA-A*69:01 = assay: as above
HLA-A*02:03 [5] = assay: as above; conditions: source organism: Burkholderia mallei ATCC 23344
HLA-A*68:02 = assay: as above
HLA-A*01:01 [6] = assay: IEDB peptide-MHC binding, purified MHC/competitive/radioactivity; ≥ and ≤ were set here for values at or beyond the usual limits of such assays; conditions: source organism: Homo sapiens
HLA-A*11:01 = assay: IEDB peptide-MHC binding, purified MHC/competitive/fluorescence; filed as Kd, often an IC50 or EC50 that approximates it; ≥ and ≤ were set here for values at or beyond the usual limits of such assays
HLA-A*30:01 = assay: as above; conditions: source organism: Human immunodeficiency virus 1
HLA-B*35:01 = assay: as above; conditions: source organism: Human immunodeficiency virus 1
HLA-A*26:02 = assay: as above; conditions: source organism: Human immunodeficiency virus 1
HLA-B*15:01 [7] = assay: as above; conditions: source organism: Human immunodeficiency virus 1
HLA-B*18:01 [8] = assay: as above; conditions: source organism: Human immunodeficiency virus 1
HLA-B*57:01 [9] = assay: as above; conditions: source organism: Human immunodeficiency virus 1
HLA-A*02:03 [10] = assay: as above
HLA-A*01:01 [11] = assay: as above; conditions: source organism: Human immunodeficiency virus 1
HLA-A*02:06 = assay: as above; conditions: source organism: Human immunodeficiency virus 1
HLA-B*48:01 [12] = assay: as above; conditions: source organism: Mycobacterium tuberculosis variant bovis BCG str. Pasteur 1173P2
HLA-A*31:01 = assay: as above; conditions: source organism: Brucella abortus S19
HLA-A*26:03 = assay: as above; conditions: source organism: Brucella abortus S19
HLA-B*27:05 = assay: IEDB peptide-MHC binding, purified MHC/direct/fluorescence; filed as Kd, often an IC50 or EC50 that approximates it; ≥ and ≤ were set here for values at or beyond the usual limits of such assays; conditions: source organism: Brucella abortus 2308
HLA-B*08:01 = assay: as above; conditions: source organism: Brucella suis 1330
HLA-B*07:02 = assay: as above; conditions: source organism: Brucella abortus 2308
HLA-B*48:01 [13] = assay: as above; conditions: source organism: Brucella abortus 2308
HLA-B*58:01 = assay: as above; conditions: source organism: Brucella abortus 2308
HLA-B*73:01 [14] = assay: as above; conditions: source organism: Brucella suis 1330
HLA-A*01:01 [15] = assay: as above; conditions: source organism: Brucella abortus 2308
HLA-B*15:17 = assay: as above; conditions: source organism: Brucella abortus 2308
HLA-A*68:01 = assay: IEDB peptide-MHC binding, purified MHC/competitive/radioactivity; ≥ and ≤ were set here for values at or beyond the usual limits of such assays; conditions: source organism: Hepacivirus hominis
[16] = source organism: Mycobacterium tuberculosis str. Haarlem
[17] = source organism: Burkholderia mallei ATCC 23344
[18] = source organism: Human immunodeficiency virus 1
[19] = source organism: Brucella abortus S19
[20] = source organism: Brucella abortus 2308

Sequence: VYYTSAFVF
IC50 (HLA-A*24:02): 35 µM

Sequence: GFYLSGHLF
Kd (HLA-C*04:01): ≥ 5 µM
Kd (HLA-B*15:42): ≥ 5 µM
Kd (HLA-B*83:01): ≥ 5 µM
Kd (HLA-A*23:01): ≤ 0.0001 µM
Kd (HLA-B*45:06): ≥ 5 µM

Sequence: RLGWRTLDF
Kd (HLA-A*02:19; [16]): ≥ 20 µM
Kd (HLA-B*39:01; [16]): ≥ 20 µM
Kd (HLA-A*02:16; [16]): ≥ 20 µM
Kd (HLA-B*18:01 [1]; [16]): ≥ 20 µM
Kd (HLA-A*26:01; [16]): ≥ 20 µM
Kd (HLA-B*57:01 [2]; [16]): ≥ 20 µM
Kd (HLA-B*51:01; [16]): ≥ 20 µM
Kd (HLA-A*02:11; [16]): ≥ 20 µM
Kd (HLA-A*02:01; [16]): ≥ 20 µM
Kd (HLA-B*46:01; [16]): ≥ 20 µM
Kd (HLA-B*27:03; [16]): ≥ 20 µM
Kd (HLA-A*02:12; [16]): ≥ 20 µM
Kd (HLA-A*03:01; [16]): ≥ 20 µM

Kd (HLA-B*73:01 [3]): 0.0673 µM
Sequence: NEWYVQPQA

Sequence: LARFPCNVI
Kd (HLA-A*24:03): ≥ 20 µM
Kd (HLA-A*02:19; [17]): ≥ 20 µM
Kd (HLA-B*15:01 [4]; [17]): ≥ 20 µM
Kd (HLA-B*39:01; [17]): ≥ 20 µM
Kd (HLA-A*69:01; [17]): ≥ 20 µM
Kd (HLA-A*02:16; [17]): ≥ 20 µM
Kd (HLA-B*18:01 [1]; [17]): ≥ 20 µM
Kd (HLA-A*26:01; [17]): ≥ 20 µM
Kd (HLA-B*51:01; [17]): 0.606 µM
Kd (HLA-A*02:11; [17]): ≥ 20 µM
Kd (HLA-A*02:03 [5]): ≥ 20 µM
Kd (HLA-A*02:01; [17]): ≥ 20 µM
Kd (HLA-A*68:02; [17]): ≥ 20 µM
Kd (HLA-B*46:01; [17]): ≥ 20 µM
Kd (HLA-B*27:03; [17]): ≥ 20 µM
Kd (HLA-A*02:12; [17]): ≥ 20 µM
Kd (HLA-A*03:01; [17]): ≥ 20 µM

IC50 (HLA-A*01:01 [6]): 0.007 µM
Sequence: IVDSLTEMY

Sequence: RSLFNTVAVLY
Kd (HLA-A*11:01; [18]): 1.35 µM
Kd (HLA-A*30:01): 2.96 µM
Kd (HLA-B*35:01): 0.387 µM
Kd (HLA-A*26:02): 3.07 µM
Kd (HLA-B*15:01 [7]): 0.907 µM
Kd (HLA-B*18:01 [8]): 0.36 µM
Kd (HLA-B*57:01 [9]): 0.676 µM
Kd (HLA-A*02:03 [10]; [18]): 0.644 µM
Kd (HLA-A*01:01 [11]): ≥ 20 µM
Kd (HLA-A*02:06): 0.952 µM

Sequence: RMVIGGVAL
Kd (HLA-B*48:01 [12]): 0.0681 µM

Sequence: RMIESRMSK
Kd (HLA-A*11:01; [19]): 0.0055 µM
Kd (HLA-A*31:01): 0.0607 µM
Kd (HLA-A*26:03): ≥ 20 µM
Kd (HLA-A*02:03 [10]; [19]): ≥ 20 µM
Kd (HLA-B*15:01 [4]; [20]): 0.341 µM
Kd (HLA-B*39:01; source organism: Brucella suis 1330): ≥ 20 µM
Kd (HLA-B*27:05): 0.0525 µM
Kd (HLA-A*69:01; [20]): ≥ 20 µM
Kd (HLA-B*18:01 [1]; [20]): ≥ 20 µM
Kd (HLA-B*08:01): ≥ 20 µM
Kd (HLA-B*57:01 [2]; [20]): ≥ 20 µM
Kd (HLA-B*07:02): ≥ 20 µM
Kd (HLA-B*48:01 [13]): ≥ 20 µM
Kd (HLA-B*58:01): ≥ 20 µM
Kd (HLA-B*73:01 [14]): ≥ 20 µM
Kd (HLA-A*01:01 [15]): ≥ 20 µM
Kd (HLA-A*02:01; [20]): ≥ 20 µM
Kd (HLA-A*68:02; [20]): ≥ 20 µM
Kd (HLA-B*15:17): ≥ 20 µM
Kd (HLA-A*03:01; [20]): 0.131 µM

Sequence: QLFTFSPRR
IC50 (HLA-A*68:01): 0.0026 µM
